Results as given in the Immune Epitope Database (IEDB).
Blank lines part the entries; values can stand above or below the sequence they belong to.

Tests used:
[1] = target: HLA-B*45:06; assay: IEDB peptide-MHC binding, purified MHC/competitive/fluorescence; filed as Kd, often an IC50 or EC50 that approximates it; ≥ and ≤ were set here for values at or beyond the usual limits of such assays; conditions: source organism: Mus musculus
[2] = target: HLA-B*15:42; assay: as above; conditions: source organism: Mus musculus
[3] = target: HLA-C*06:02; assay: as above; conditions: source organism: Mus musculus
[4] = target: HLA-B*27:20; assay: as above; conditions: source organism: Mus musculus
[5] = target: HLA-B*73:01; assay: as above; conditions: source organism: Mus musculus
[6] = target: HLA-C*07:02; assay: IEDB peptide-MHC binding, purified MHC/direct/fluorescence; filed as Kd, often an IC50 or EC50 that approximates it; ≥ and ≤ were set here for values at or beyond the usual limits of such assays; conditions: source organism: Mus musculus
[7] = target: HLA-B*27:05; assay: IEDB peptide-MHC binding, purified MHC/competitive/fluorescence; filed as Kd, often an IC50 or EC50 that approximates it; ≥ and ≤ were set here for values at or beyond the usual limits of such assays; conditions: source organism: Mycobacterium tuberculosis variant bovis BCG str. Pasteur 1173P2
[8] = target: HLA-A*69:01; assay: IEDB peptide-MHC binding, purified MHC/direct/fluorescence; filed as Kd, often an IC50 or EC50 that approximates it; ≥ and ≤ were set here for values at or beyond the usual limits of such assays; conditions: source organism: Brucella abortus 2308
[9] = target: HLA-A*02:01; assay: as above; conditions: source organism: Brucella abortus 2308
[10] = target: HLA-B*58:01; assay: as above; conditions: source organism: Brucella melitensis
[11] = target: HLA-B*15:01; assay: as above; conditions: source organism: Brucella abortus 2308
[12] = target: HLA-A*01:01; assay: as above; conditions: source organism: Brucella abortus 2308
[13] = target: HLA-B*44:02; assay: as above; conditions: source organism: Brucella abortus 2308
[14] = target: HLA-B*07:02; assay: as above; conditions: source organism: Brucella abortus 2308
[15] = target: HLA-B*27:05; assay: as above; conditions: source organism: Brucella melitensis
[16] = target: HLA-A*11:01; assay: as above; conditions: source organism: Brucella abortus 2308
[17] = target: HLA-A*31:01; assay: as above; conditions: source organism: Brucella abortus 2308
[18] = target: HLA-A*03:01; assay: as above; conditions: source organism: Brucella abortus 2308
[19] = target: HLA-B*08:01; assay: as above; conditions: source organism: Brucella abortus 2308
[20] = target: HLA-A*26:01; assay: as above; conditions: source organism: Brucella abortus 2308
[21] = target: HLA-B*73:01; assay: as above; conditions: source organism: Brucella suis ATCC 23445
[22] = target: HLA-B*40:01; assay: as above; conditions: source organism: Brucella abortus 2308
[23] = target: HLA-B*15:01; assay: IEDB peptide-MHC binding, purified MHC/competitive/fluorescence; filed as Kd, often an IC50 or EC50 that approximates it; ≥ and ≤ were set here for values at or beyond the usual limits of such assays; conditions: source organism: Escherichia coli
[24] = target: HLA-A*31:01; assay: as above; conditions: source organism: Escherichia coli
[25] = target: HLA-A*03:01; assay: as above; conditions: source organism: Escherichia coli
[26] = target: HLA-C*06:02; assay: IEDB peptide-MHC binding, purified MHC/direct/fluorescence; filed as Kd, often an IC50 or EC50 that approximates it; ≥ and ≤ were set here for values at or beyond the usual limits of such assays; conditions: source organism: Escherichia coli
[27] = target: HLA-C*04:01; assay: as above; conditions: source organism: Leishmania major strain Friedlin

Kd [1]: ≥ 5 µM | Kd [2]: ≥ 5 µM | Kd [3]: 0.0038 µM | Kd [4]: 0.0002 µM | Kd [5]: 0.689 µM | Kd [6]: 0.03 µM
Sequence: FRMLAWHVL

Sequence: GRAVSSATF
Kd [7]: 0.141 µM

Sequence: KRASGDPYF
Kd [8]: ≥ 20 µM | Kd [9]: ≥ 20 µM | Kd [10]: 5.93 µM | Kd [11]: ≥ 20 µM | Kd [12]: ≥ 20 µM | Kd [13]: ≥ 20 µM | Kd [14]: ≥ 20 µM | Kd [15]: 2.79 µM | Kd [16]: ≥ 20 µM | Kd [17]: ≥ 20 µM | Kd [18]: ≥ 20 µM | Kd [19]: ≥ 20 µM | Kd [20]: ≥ 20 µM | Kd [21]: ≥ 20 µM | Kd [22]: ≥ 20 µM

Kd [23]: ≥ 20 µM | Kd [24]: 0.0021 µM | Kd [25]: ≥ 20 µM | Kd [26]: ≥ 20 µM
Sequence: RYWRLRYRI

Sequence: TRDPNLAYI
Kd [27]: ≥ 20 µM
